Reference: article PMC5854732

Assays:
[1] = target: toposome (major yolk protein) purified from gonads of Paracentrotus lividus collected prior to the bloom (C) (Paracentrotus lividus (endogenous in gonads)); assay: SEC; gel filtration on Sephacryl S-400 HR (1.8 x 42 cm), Tris-HCl buffer pH 8.0 with 150 mM NaCl, 0.5 ml/min; size by comparison with standards (blue dextran 2,000 kDa, thyroglobulin 669 kDa, apoferritin 443 kDa); apparent molecular weight
[2] = target: toposome (major yolk protein) purified from gonads of Paracentrotus lividus collected at the bloom phase (T0) (Paracentrotus lividus (endogenous in gonads)); assay: as above

stoichiometry N [1]	stoichiometry N [2]	Substance
3	–	toposome (major yolk protein) purified from gonads of Paracentrotus lividus collected prior to the bloom (C) (natural protein)
–	3	toposome (major yolk protein) purified from gonads of Paracentrotus lividus collected at the bloom phase (T0) (natural protein)
